Earlier results in paper PMC7557795.

How the values were obtained:
IL-6R (Homo sapiens) = IL-6R (Homo sapiens) (UniProt P08887)
[1] = target: IL-6R/gp130 (Homo sapiens) (UniProt P08887)
Sequence of IL-6R/gp130 (Homo sapiens) (P08887 20-365, chain 1 of 2): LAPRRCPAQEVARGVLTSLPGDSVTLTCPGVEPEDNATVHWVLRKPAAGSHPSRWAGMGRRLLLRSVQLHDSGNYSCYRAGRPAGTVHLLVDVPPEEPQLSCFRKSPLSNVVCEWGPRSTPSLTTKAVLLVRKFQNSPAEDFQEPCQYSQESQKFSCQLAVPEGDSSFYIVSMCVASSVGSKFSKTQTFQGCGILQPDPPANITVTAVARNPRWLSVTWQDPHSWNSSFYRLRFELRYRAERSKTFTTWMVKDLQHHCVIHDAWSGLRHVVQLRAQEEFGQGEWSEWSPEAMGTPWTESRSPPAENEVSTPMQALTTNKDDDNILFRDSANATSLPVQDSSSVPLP
Sequence of IL-6R/gp130 (Homo sapiens) (partner, as listed by the source, chain 2 of 2): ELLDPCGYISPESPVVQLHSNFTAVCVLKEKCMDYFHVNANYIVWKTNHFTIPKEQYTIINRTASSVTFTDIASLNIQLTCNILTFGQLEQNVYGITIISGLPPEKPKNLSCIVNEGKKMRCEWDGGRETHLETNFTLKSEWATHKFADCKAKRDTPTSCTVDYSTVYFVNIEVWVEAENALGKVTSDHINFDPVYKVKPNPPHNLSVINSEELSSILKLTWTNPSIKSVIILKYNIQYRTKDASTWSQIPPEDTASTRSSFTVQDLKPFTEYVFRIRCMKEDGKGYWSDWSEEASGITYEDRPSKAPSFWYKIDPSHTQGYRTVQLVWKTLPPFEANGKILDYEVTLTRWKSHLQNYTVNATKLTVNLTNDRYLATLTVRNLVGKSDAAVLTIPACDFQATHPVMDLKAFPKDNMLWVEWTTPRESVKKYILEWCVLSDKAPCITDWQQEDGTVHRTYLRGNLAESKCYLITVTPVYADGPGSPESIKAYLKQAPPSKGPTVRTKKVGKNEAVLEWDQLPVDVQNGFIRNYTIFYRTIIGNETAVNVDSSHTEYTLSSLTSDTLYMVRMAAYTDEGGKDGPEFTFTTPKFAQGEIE

Sequence of IL-6 (P05231 30-212): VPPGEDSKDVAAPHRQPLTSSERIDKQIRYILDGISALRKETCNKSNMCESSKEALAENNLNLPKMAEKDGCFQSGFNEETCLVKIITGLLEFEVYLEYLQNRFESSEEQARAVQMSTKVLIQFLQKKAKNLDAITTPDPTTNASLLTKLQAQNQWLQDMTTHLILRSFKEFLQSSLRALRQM
Sequence of IL-6R (Homo sapiens) (P08887 20-355): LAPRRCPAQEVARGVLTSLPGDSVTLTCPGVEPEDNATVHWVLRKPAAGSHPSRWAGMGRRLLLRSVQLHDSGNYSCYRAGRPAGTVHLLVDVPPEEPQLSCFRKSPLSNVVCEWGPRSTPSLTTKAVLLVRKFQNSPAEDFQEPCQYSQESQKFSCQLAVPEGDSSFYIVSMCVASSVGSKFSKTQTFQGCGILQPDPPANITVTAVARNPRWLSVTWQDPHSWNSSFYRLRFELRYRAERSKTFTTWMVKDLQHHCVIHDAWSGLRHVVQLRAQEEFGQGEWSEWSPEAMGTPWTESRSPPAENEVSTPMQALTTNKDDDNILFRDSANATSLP

Kd (IL-6R (Homo sapiens)): 900 pM
Kd [1]: 80 pM
Substance: IL-6 (from UniProt P05231)
